Results on eight molecules are retold here after US20200102388A1 (NEW YORK UNIVERSITY, published 2020).

Like-named read-outs stand apart in the source and are kept apart here.

In assay [1] the target is T1, γδ1 TCR containing the delta1C chain (human, biotinylated in vitro using recombinant BirA (AviTag)).
T1 construct: also called biotinylated TCR sample; gamma/delta1 TCR; not shown: Fc portion of mouse IgG; AviTag; His6 tag; TCR gamma chain fused to mouse IgG Fc
The assay is described as follows: SPR (Pioneer, OneStep): biotinylated TCR immobilised on a neutravidin-loaded Avicap chip, IgG flowed; apparent KD.

For assay [2], the target named is T2, heterodimer containing Delta1C and gamma 3, Fc-fusion protein (human).
T2 construct: the assay paragraph says only gamma 3; also called Delta1C/Gamma3; not shown: Fc portion of mouse IgG; AviTag; His6 tag
T2 sequence (V domain, as listed by the source, chain 1 of 2): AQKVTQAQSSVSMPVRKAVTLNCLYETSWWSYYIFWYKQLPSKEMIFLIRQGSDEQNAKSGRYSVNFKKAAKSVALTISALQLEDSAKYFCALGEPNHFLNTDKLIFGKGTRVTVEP
T2 sequence (V domain, as listed by the source, chain 2 of 2): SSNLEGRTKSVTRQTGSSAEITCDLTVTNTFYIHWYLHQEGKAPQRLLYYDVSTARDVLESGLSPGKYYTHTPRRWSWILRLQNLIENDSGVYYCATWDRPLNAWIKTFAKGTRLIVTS
In words: ELISA on gamma/delta TCR-Fc heterodimers immobilised on a microtiter plate, probed with the clone named over the panel (control panel: No Phage).

Assay [3] deals with T3, heterodimer containing Delta1C and gamma 8, Fc-fusion protein (human).
T3 construct: the assay paragraph says only gamma 8; also called Delta1C/Gamma8; not shown: Fc portion of mouse IgG; AviTag; His6 tag
T3 sequence (V domain, as listed by the source, chain 1 of 2): as the sequence (V domain, as listed by the source, chain 1 of 2) above
T3 sequence (V domain, as listed by the source, chain 2 of 2): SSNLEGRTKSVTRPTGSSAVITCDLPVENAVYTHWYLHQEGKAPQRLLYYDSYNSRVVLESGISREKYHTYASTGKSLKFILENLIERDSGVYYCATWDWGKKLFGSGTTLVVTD
The assay is described as above.

In assay [4] the target is T1, γδ1 TCR containing the delta1C chain. In words: SPR (Pioneer, OneStep): biotinylated TCR immobilised on a neutravidin-loaded Avicap chip, IgG flowed; apparent KD. The source holds these as a separate data set.
Description: (§1) The affinity of the antibodies was assessed using surface plasmon resonance (SPR). A biotinylated TCR sample was immobilized on an Avicap chip (Pall ForteBio) that had been preloaded with neutravidin (ThermoFisher). IgG samples were flowed using the OneStep method on a Pioneer SPR instrument (Pall ForteBio).
The target in assay [5] is T2, heterodimer containing Delta1C and …. In words: ELISA on gamma/delta TCR-Fc heterodimers immobilised on a microtiter plate, probed with the clone named over the panel (control panel: No Phage). The source holds these as a separate data set.
Assay [6] addresses T3, heterodimer containing Delta1C and …. The assay is described as above. The source holds these as a separate data set.
Assay [7] has as its target T1, γδ1 TCR containing the delta1C chain. The assay is described as follows: SPR (Pioneer, OneStep): biotinylated TCR immobilised on a neutravidin-loaded Avicap chip, IgG flowed; apparent KD. The source holds these as a separate data set.
Description: as §1
Assay [8] has as its target T2, heterodimer containing Delta1C and …. The assay is described as follows: ELISA on gamma/delta TCR-Fc heterodimers immobilised on a microtiter plate, probed with the clone named over the panel (control panel: No Phage). This is another data set of the same source.
Assay [9] concerns the target T3, heterodimer containing Delta1C and …. Described as above. This is another data set of the same source.
The target of assay [10] is T2, heterodimer containing Delta1C and …. The assay is described as above. This is another data set of the same source.
Assay [11] deals with T3, heterodimer containing Delta1C and …. The assay is described as above. The source holds these as a separate data set.
The target in assay [12] is T1, γδ1 TCR containing the delta1C chain. In words: SPR (Pioneer, OneStep): biotinylated TCR immobilised on a neutravidin-loaded Avicap chip, IgG flowed; apparent KD. The source holds these as a separate data set.
Description: as §1
For assay [13] the target is unchanged. Described as above. This is another data set of the same source.
Description: as §1
Assay [14] deals with T2, heterodimer containing Delta1C and …. The assay is described as follows: ELISA on gamma/delta TCR-Fc heterodimers immobilised on a microtiter plate, probed with the clone named over the panel (control panel: No Phage). This is another data set of the same source.
Assay [15] concerns the target T3, heterodimer containing Delta1C and …. The assay is described as above. The source holds these as a separate data set.
The target in assay [16] is T1, γδ1 TCR containing the delta1C chain. The assay is described as follows: SPR (Pioneer, OneStep): biotinylated TCR immobilised on a neutravidin-loaded Avicap chip, IgG flowed; apparent KD. The source holds these as a separate data set.
Description: as §1
For assay [17], the target named is T2, heterodimer containing Delta1C and …. The assay is described as follows: ELISA on gamma/delta TCR-Fc heterodimers immobilised on a microtiter plate, probed with the clone named over the panel (control panel: No Phage). The source holds these as a separate data set.
Assay [18] deals with T3, heterodimer containing Delta1C and …. Described as above. The source holds these as a separate data set.

T1 sequence (main, as listed by the source): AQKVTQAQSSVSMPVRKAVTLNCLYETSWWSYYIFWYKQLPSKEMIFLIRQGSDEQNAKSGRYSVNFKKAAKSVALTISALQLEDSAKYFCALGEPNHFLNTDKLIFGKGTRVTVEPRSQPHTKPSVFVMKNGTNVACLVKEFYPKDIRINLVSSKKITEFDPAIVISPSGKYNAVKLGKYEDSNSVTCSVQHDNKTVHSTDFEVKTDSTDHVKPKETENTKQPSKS

B1: Delta 1-3 (antibody, V domains shown)
VH: EVQLVESGGGLVQPGGSLRLSCAASGFTLSSSSIHWVRQAPGKGLEWVASIYSSSGYTSYADSVKGRFTISADTSKNTAYLQMNSLRAEDTAVYYCARGLWSVWYYQFYSSMQGMDYWGQGTLVTVSS
VL: DIQMTQSPSSLSASVGDRVTITCRASQSVSSAVAWYQQKPGKAPKLLIYSASSLYSGVPSRFSGSRSGTDFTLTISSLQPEDFATYYCQQGYEYPLTFGQGTKVEIKR
notes: Tested by SPR as human IgG
Consider B1, for which, in assay [1], the Kd amounted to 50 nM.

B2: Delta 1-15 (antibody, V domains shown)
VH: EVQLVESGGGLVQPGGSLRLSCAASGFTFSSSSIHWVRQAPGKGLEWVASISSSSGSTSYADSVKGRFTISADTSKNTAYLQMNSLRAEDTAVYYCARYSWIYDSWWSGWAMDYWGQGTLVTVSS
VL: DIQMTQSPSSLSASVGDRVTITCRASQSVSSAVAWYQQKPGKAPKLLIYSASSLYSGVPSRFSGSRSGTDFTLTISSLQPEDFATYYCQQSSSSLITFGQGTKVEIKR
For B2, the binding result in [2] is given as “binds”; in assay [3], “no binding”.

B3: Delta 1-17 (antibody, V domains shown)
VH: EVQLVESGGGLVQPGGSLRLSCAASGFTVSSSSIHWVRQAPGKGLEWVASIYSSSGYTYYADSVKGRFTISADTSKNTAYLQMNSLRAEDTAVYYCARDPGMYYWYYSGSAYEGYGLDYWGQGTLVTVSS
VL: DIQMTQSPSSLSASVGDRVTITCRASQSVSSAVAWYQQKPGKAPKLLIYSASSLYSGVPSRFSGSRSGTDFTLTISSLQPEDFATYYCQQSGDDLITFGQGTKVEIKR
notes: also called Delta1-17 IgG
As to B3, in assay [4], the Kd was 7 nM. Also, the binding result in assay [5] and in assay [6] was “binds” in each case.

B4: Delta 1-10 (antibody, V domains shown)
VH: EVQLVESGGGLVQPGGSLRLSCAASGFTFSSSSIHWVRQAPGKGLEWVASISSSSGSTSYADSVKGRFTISADTSKNTAYLQMNSLRAEDTAVYYCARSMVWYWGLNGYEEYAGGMDYWGQGTLVTVSS
VL: DIQMTQSPSSLSASVGDRVTITCRASQSVSSAVAWYQQKPGKAPKLLIYSASSLYSGVPSRFSGSRSGTDFTLTISSLQPEDFATYYCQQSSSSLITFGQGTKVEIKR
Turning to B4, the Kd in [7] turned out to be 24 nM. Besides, the binding result in [8] and in [9] was “no binding” each time.

B5: Delta 1-8 (antibody, V domains shown)
VH: EVQLVESGGGLVQPGGSLRLSCAASGFTVSSSSIHWVRQAPGKGLEWVASIYSSSGYTYYADSVKGRFTISADTSKNTAYLQMNSLRAEDTAVYYCARPYYWYPYYYWSGGWEYAAFDYWGQGTLVTVSS
VL: DIQMTQSPSSLSASVGDRVTITCRASQSVSSAVAWYQQKPGKAPKLLIYSASSLYSGVPSRFSGSRSGTDFTLTISSLQPEDFATYYCQQYGEYPITFGQGTKVEIKR
Turning to B5, the binding result in assay [10] and in assay [11] was “binds” throughout.

B6: Delta 1-13 (antibody, V domains shown)
VH: EVQLVESGGGLVQPGGSLRLSCAASGFTFSSSSIHWVRQAPGKGLEWVASISSSSGSTSYADSVKGRFTISADTSKNTAYLQMNSLRAEDTAVYYCARTTSYIDEYFGFGWYAMDYWGQGTLVTVSS
VL: DIQMTQSPSSLSASVGDRVTITCRASQSVSSAVAWYQQKPGKAPKLLIYSASSLYSGVPSRFSGSRSGTDFTLTISSLQPEDFATYYCQQSSSSLITFGQGTKVEIKR
In the case of B6, in assay [12], the Kd was 53 nM.

B7: Delta 1-1 (antibody, V domains shown)
VH: EVQLVESGGGLVQPGGSLRLSCAASGFTVSSSSIHWVRQAPGKGLEWVASISSYYGYTSYADSVKGRFTISADTSKNTAYLQMNSLRAEDTAVYYCAREEWMSYWYWPRYYYYGMDYWGQGTLVTVSS
VL: DIQMTQSPSSLSASVGDRVTITCRASQSVSSAVAWYQQKPGKAPKLLIYSASSLYSGVPSRFSGSRSGTDFTLTISSLQPEDFATYYCQQAALMSPITFGQGTKVEIKR
notes: Tested by SPR as human IgG made in ExpiCHO cells
With B7, the Kd in [13] came to 10 nM. The binding result in assay [14] and in assay [15] was “no binding” in each case.

B8: Delta 1-6 (antibody, V domains shown)
VH: EVQLVESGGGLVQPGGSLRLSCAASGFTVYSSSIHWVRQAPGKGLEWVASISPYSGSTSYADSVKGRFTISADTSKNTAYLQMNSLRAEDTAVYYCARMWYLSGWWTGDALDYWGQGTLVTVSS
VL: DIQMTQSPSSLSASVGDRVTITCRASQSVSSAVAWYQQKPGKAPKLLIYSASSLYSGVPSRFSGSRSGTDFTLTISSLQPEDFATYYCQQGYYSALITFGQGTKVEIKR
Regarding B8, in assay [16], the Kd was determined as 11 nM. For the same molecule, the binding result in assay [17] and in assay [18] was “no binding” in each case.
